Patent US20240010735A1 (EISAI R AND D MANAGEMENT, published 2024)

How the values were obtained:
[1] = molecular target: T1, human EphA4 extracellular region-SEAP-His protein (human, UniProt P54764 20-547); assay: SPR (Biacore T200): human EphA4 extracellular region-SEAP-His captured on anti-His antibody, antibody A 1.6-100 nM as analyte, 1:1 fit
T1 construct: also called human EphA4 extracellular region-SEAP-His 10; not shown: secretory alkaline phosphatase (SEAP); histidine tag
Protocol: The binding affinity of antibody A against mouse and human EphA4 was determined by surface plasmon resonance (SPR method) employing Biacore T200 (GE Healthcare). First, anti-His antibodies (GE Healthcare, 28-9950-56) were fixed to a sensor chip CM5. Fixation was carried out by amine coupling method employing N-hydroxysuccinimide (NHS) and N-ethyl-N′-(3-dimethylaminopropyl) carbodiimide hydrochloride salt (EDC), and ethanolamine was employed for blocking (the sensor chip and reagents for fixation are all from GE Healthcare). This was diluted with the fixation buffer (10 mM sodium acetate, pH 4.5) to 3.5 μg/mL, and fixed onto the sensor chip according to the protocol accompanying Biacore T200. Mouse or human EphA4 extracellular region-SEAP-His 10 was diluted with the running buffer HBS-EP (GE Healthcare, BR-1001-88), and the solution was sent and captured onto the flow cell for 120 seconds (about 10 RU of captured amount). […] Fitting analysis by 1:1 binding model employing the software accompanying the system, BIA evaluation software, was carried out against the binding reaction curve obtained, and the binding affinity (KD=kd/ka) against mouse and human EphA4 was calculated.

[2] = molecular target: T2, mouse EphA4 extracellular region-SEAP-His protein (mouse); assay: SPR, Biacore T200; EphA4 extracellular region-SEAP-His captured on anti-His chip, antibody as analyte, 1:1 model
T2 construct: also called mouse EphA4 extracellular region-SEAP-His 10
Protocol: The binding affinity of antibody A against mouse and human EphA4 was determined by surface plasmon resonance (SPR method) employing Biacore T200 (GE Healthcare). First, anti-His antibodies (GE Healthcare, 28-9950-56) were fixed to a sensor chip CM5. Fixation was carried out by amine coupling method employing N-hydroxysuccinimide (NHS) and N-ethyl-N′-(3-dimethylaminopropyl) carbodiimide hydrochloride salt (EDC), and ethanolamine was employed for blocking (the sensor chip and reagents for fixation are all from GE Healthcare). This was diluted with the fixation buffer (10 mM sodium acetate, pH 4.5) to 3.5 μg/mL, and fixed onto the sensor chip according to the protocol accompanying Biacore T200. Mouse or human EphA4 extracellular region-SEAP-His 10 was diluted with the running buffer HBS-EP (GE Healthcare, BR-1001-88), and the solution was sent and captured onto the flow cell for 120 seconds (about 10 RU of captured amount). Subsequently, antibody A serially diluted to a range of 100, 50, 25, 12.5, 6.3, 3.2, 1.6, 0 nM with HBS-EP was added to the sensor chip for 120 seconds, and the binding reaction curve at the time of addition (binding phase, 120 seconds) and after completing the addition (dissociation phase, 600 seconds) was sequentially observed. Upon completion of each observation, 4 M MgCl₂ (60 seconds, Wako Pure Chemicals) was added to regenerate the sensor chip. Fitting analysis by 1:1 binding model employing the software accompanying the system, BIA evaluation software, was carried out against the binding reaction curve obtained, and the binding affinity (KD=kd/ka) against mouse and human EphA4 was calculated.
The binding affinity of antibody B obtained in Example 1 against human EphA4 was determined by surface plasmon resonance (SPR method) employing Biacore T200 (GE Healthcare). First, anti-His antibodies (GE Healthcare, 28-9950-56) were fixed to a sensor chip CMS. […]

[3] = molecular target: T3, mouse EphB3 extracellular region-Fc-His protein (mouse; human, UniProt P54754 30-554); assay: ELISA: Fc-His proteins (1 nM) captured on anti-6-His antibody, antibody A 10 µg/mL with human IgG 100 µg/mL, HRP anti-mouse IgG, OD450 as % of mouse EphA4-Fc-His
T3 construct: extracellular domain; not shown: Fc region of human IgG1; histidine tag
T3 sequence (looked up): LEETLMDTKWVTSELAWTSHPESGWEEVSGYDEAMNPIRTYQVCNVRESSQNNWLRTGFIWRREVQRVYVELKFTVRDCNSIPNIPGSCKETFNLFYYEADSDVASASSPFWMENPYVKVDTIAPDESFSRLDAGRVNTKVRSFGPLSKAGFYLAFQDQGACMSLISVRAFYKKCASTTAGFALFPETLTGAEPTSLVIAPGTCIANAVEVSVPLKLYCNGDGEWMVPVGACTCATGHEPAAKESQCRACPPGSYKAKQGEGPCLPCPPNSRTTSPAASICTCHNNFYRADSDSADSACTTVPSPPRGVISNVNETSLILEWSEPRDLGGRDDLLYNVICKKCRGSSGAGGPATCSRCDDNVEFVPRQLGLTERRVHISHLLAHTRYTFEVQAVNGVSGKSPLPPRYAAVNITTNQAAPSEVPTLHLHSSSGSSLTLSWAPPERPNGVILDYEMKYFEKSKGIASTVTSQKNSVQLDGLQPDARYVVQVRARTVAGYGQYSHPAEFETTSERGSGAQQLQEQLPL

MBP = assay: ELISA: human EphA4 domain-MBP-His proteins (10 nM) captured on anti-6-His antibody, antibody B 10 nM, HRP anti-human IgG Fc fragment antibody, OD450-OD650
Protocol: Rabbit anti-6-His antibodies (Bethyl Laboratories) were coated onto the wells of a 96-well plate (Nunc). After incubating at 4° C. overnight, the wells were blocked at room temperature for 1 hour by 1% Block Ace (DS Pharma Biomedical). After washing twice with 0.02% Tween 20/PBS (Nacalai Tesque), human EphA4 extracellular region-MBP-His protein, human EphA4 ligand binding domain-MBP-His protein, human EphA4 fibronectin type III domain 1-MBP-His protein, and human EphA4 fibronectin type III domain 2-MBP-His protein (final concentration 10 nM) were seeded into the wells, and incubated at room temperature for 1 hour. After washing 3 times, antibody B (final concentration 10 nM) was supplemented to the wells, and incubated at room temperature for 1 hour. Horseradish peroxidase-labeled rabbit anti-human IgG Fey fragment antibody (Jackson ImmunoResearch Laboratories) was added, and incubated at room temperature for 1 hour. After washing 5 times, TMB (KPL) solution was added to the wells, and upon confirmation of modest coloring, an equal amount of quenching solution (2 N […]) was added to the wells, and absorbance at 450 nm and 650 nm were read by a microplate reader (PerkinElmer).

T1 sequence (P54764 20-547): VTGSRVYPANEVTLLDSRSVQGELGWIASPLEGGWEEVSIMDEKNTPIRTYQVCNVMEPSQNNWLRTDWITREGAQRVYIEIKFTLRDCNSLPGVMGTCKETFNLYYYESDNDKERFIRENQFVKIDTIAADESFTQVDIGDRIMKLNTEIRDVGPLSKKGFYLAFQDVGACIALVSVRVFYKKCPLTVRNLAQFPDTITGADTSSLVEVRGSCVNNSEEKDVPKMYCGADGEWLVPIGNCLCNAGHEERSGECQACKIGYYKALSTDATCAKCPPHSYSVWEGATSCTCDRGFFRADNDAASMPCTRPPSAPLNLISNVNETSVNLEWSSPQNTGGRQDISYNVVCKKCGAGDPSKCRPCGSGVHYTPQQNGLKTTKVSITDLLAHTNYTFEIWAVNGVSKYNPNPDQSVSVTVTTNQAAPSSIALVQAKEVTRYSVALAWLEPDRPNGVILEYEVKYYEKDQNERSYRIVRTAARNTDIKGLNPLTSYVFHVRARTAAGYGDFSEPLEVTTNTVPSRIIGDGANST
T2 sequence (chain, as listed by the source limits assumed): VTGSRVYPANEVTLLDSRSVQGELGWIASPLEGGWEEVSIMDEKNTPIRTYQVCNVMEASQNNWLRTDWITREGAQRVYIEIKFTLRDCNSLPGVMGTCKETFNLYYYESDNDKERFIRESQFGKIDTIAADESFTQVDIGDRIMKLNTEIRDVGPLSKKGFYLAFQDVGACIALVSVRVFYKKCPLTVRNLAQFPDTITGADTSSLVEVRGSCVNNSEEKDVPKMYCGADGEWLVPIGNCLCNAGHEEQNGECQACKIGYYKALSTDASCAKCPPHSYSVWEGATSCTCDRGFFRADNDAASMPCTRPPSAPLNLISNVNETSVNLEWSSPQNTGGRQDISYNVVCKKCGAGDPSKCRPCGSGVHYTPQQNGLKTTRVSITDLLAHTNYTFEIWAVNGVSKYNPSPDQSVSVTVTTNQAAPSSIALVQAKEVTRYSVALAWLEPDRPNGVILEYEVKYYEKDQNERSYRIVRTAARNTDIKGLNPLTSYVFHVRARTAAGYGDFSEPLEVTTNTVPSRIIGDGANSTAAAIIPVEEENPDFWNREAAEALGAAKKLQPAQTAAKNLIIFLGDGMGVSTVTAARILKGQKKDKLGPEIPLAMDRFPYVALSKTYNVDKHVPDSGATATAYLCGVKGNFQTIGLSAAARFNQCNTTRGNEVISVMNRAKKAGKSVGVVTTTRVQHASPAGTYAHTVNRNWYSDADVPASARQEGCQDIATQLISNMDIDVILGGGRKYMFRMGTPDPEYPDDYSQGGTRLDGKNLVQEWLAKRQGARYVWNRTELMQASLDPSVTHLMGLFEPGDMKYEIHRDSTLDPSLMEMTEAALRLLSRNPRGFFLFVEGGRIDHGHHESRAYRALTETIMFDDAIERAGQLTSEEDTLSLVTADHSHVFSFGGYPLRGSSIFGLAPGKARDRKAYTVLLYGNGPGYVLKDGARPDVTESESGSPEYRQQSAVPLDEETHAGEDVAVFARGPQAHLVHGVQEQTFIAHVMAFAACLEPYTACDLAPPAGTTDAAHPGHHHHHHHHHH

B1: mouse anti-EphA4 monoclonal antibody (antibody A) (antibody, mouse IgG1, kappa, V domains shown)
VH: QVQLKQSGPSLVQPSQSLSITCTVSGFSLTRYGVHWVRQSPGKGLEWLGVIWRGGSTDYNAAFMSRLSITKDNSKSQVFFKMNSLQADDTAIYYCAKESLFGVYYDYGYYSMDYWGQGTSVTVSS
VL: DIQMTQSPSSLSASLGERVSLTCRASQEISGYLSWLQQKPDGTIKRLIYAASTLDSGVPKRFSGSRSGSDYSLTISSLESEDFADYYCLQYASYPLTFGAGTKLELKR
notes: purified from hybridoma supernatant
- koff [1]: 0.000448 s⁻¹
- kon [1]: 379000 M⁻¹ s⁻¹
- Kd [2]: 1.32 nM
- binding result [3]: no binding (tested: 10 µg/mL)

B2: humanized anti-EphA4 monoclonal antibody (antibody B) (antibody, human IgG2, V domains shown)
VH: QVQLVESGGGVVQPGRSLRLSCAVSGFSLTRFGVHWVRQAPGKGLEWVAVIWRGGSTDYNAAFMSRLTISKDNSKNTVYLQMNSLRAEDTAVYYCAKESLFGVYYDYGYYSMDYWGQGTTVTVSS
VL: DIQMTQSPSSLSASVGDRVTITCRASQEISGYLSWLQQKPGKAPKRLIYAASTLDSGVPSRFSGSRSGTEYTLTISSLQPEDFATYYCLQYASYPLTFGGGTKVEIKR
notes: expressed in Expi293F cells; also called humanized antibody of antibody A; HK2-42 / L1-8
- binding result (MBP): no binding (tested: 10 nM)
